Substrate: CC(=O)NC1C(Oc2ccc(NC(=O)CCN(CCCCNC(=O)c3ccccc3)C(=O)OC(C)(C)C)cc2)OC(COS(=O)(=O)O)C(O)C1O
Experiment: Enzyme kinetics of HexA with the HexA substrate, endogenous enzyme from healthy adult dried blood spots, LC-MS/MS detection
Type: biochemical
Settings: other: endogenous enzyme from healthy adult dried blood spots
Description: 3.2 mm punches were taken from dried blood samples. The punches were added into a well of a multiwell plate and in particular, a 1.0 mL deep-well 96-well plate. Following, 30 μL of the duplex assay cocktail described above was added to each well. The plate was sealed with a silicone sealing mat and shaken at 250 rpm for 4 hours at 37° C. in an orbital shaker incubator. After incubation, the enzymatic reaction was quenched by adding 100 μL of methanol: ethyl acetate (1:1) and mixed by pipetting up and down ˜10 times. Analytes were extracted by adding sodium chloride solution (0.5 M, 200 μL) and ethyl acetate (400 μL) to each well and mixed by pipetting up and down ˜10 times. […]
Analytes were detected via a WATERS™ Xevo TQ triple-quadrupole mass spectrometer. […] The following MRM traces were monitored for quantitation: HexA enzymatic reaction product (456.5>356.1), HexA/B enzymatic reaction product (461.5>361.2), and internal standard (465.5>357.1). […]
Enzyme kinetics of HexA and HexA/B were measured in relationship to the HexA substrate and HexA/B substrate, respectively, using endogenous enzymes from healthy adult dried blood spots. […]
The reaction rate for each substrate at different substrate concentrations was measured and the relationship found to be hyperbolic.

B1: HexA (Homo sapiens) (protein)
chain: TLEKNVLVVSVVTPGCNQLPTLESVENYTLTINDDQCLLLSETVWGALRGLETFSQLVWKSAEGTFFINKTEIEDFPRFPHRGLLLDTSRHYLPLSSILDTLDVMAYNKLNVFHWHLVDDPSFPYESFTFPELMRKGSYNPVTHIYTAQDVKEVIEYARLRGIRVLAEFDTPGHTLSWGPGIPGLLTPCYSGSEPSGTFGPVNPSLNNTYEFMSTFFLEVSSVFPDFYLHLGGDEVDFTCWKSNPEIQDFMRKKGFGEDFKQLESFYIQTLLDIVSSYGKGYVVWQEVFDNKVKIQPDTIIQVWREDIPVNYMKELELVTKAGFRALLSAPWYLNRISYGPDWKDFYIVEPLAFEGTPEQKALVIGGEACMWGEYVDNTNLVPRLWPRAGAVAERLWSNKLTSDLTFAYERLSHFRCELLRRGVQAQPLNVGFCEQEFEQT
notes: using endogenous enzymes from healthy adult dried blood spots; from tissue; host or cells: dried blood spots from healthy adults/individuals (3.2 mm punches)
With B1 the Km was 4,051 μM.

Reference: patent publication US20250250608A1, “METHODS AND COMPOSITIONS FOR ASSAYING BETA-HEXOSAMINIDASE ENZYMATIC ACTIVITY VIA MASS SPECTROMETRY” (GelbChem, LLC, priority 2024, published 2025)
